The target in this test is bovine pancreatic ribonuclease A (bovine) (UniProt P61823). The test is described as follows: SEC; size of the SA-2 peak from stored N-swapped oligomers, estimated from its elution volume against the calibration curves of the Superdex columns; estimate only.

Here are results for one substance from PMC9569824.

Consider “bovine pancreatic ribonuclease A (from UniProt P61823 27-150) (enzyme)”, for which the stoichiometry N (RNase A units) is 180.
